The record followed here is US20090060916A1 (published 2009).

For test [1], the target named is T1, human IL-13 (human, UniProt P35225 35-146, biotinylated on the Biacore chip).
T1 construct: also called hIL-13; recombinant human IL-13
In words: Biacore SPR, IL-13 surface. For orientation: In SPR one partner is held on a chip, and binding of the other changes the refractive index at the surface.

The target in test [2] is T1, human IL-13. Description: cell-based or functional assay.
The target of test [3] is T1, human IL-13. In words: IL-13 BIAcore binding assay.
Test [4] deals with T1, human IL-13. In words: IL-13 sandwich ELISA, competition with coating antibody. The procedure: (§1) A MAXISORP™ plate (high protein binding ELISA plate, Nunc, Denmark) was coated overnight with 2.5 μg/ml coating antibody (Module Set, Bender MedSystems, Vienna, Austria), then washed once with 0.05% (v/v) Tween 20 in PBS before blocking with 0.5% (w/v) BSA 0.05% (v/v) Tween 20 in PBS. […] The plate was then incubated with TMB substrate (KPL, Gaithersburg, USA), and the reaction was stopped by the addition of HCl and the absorbance read at 450 nm.

In test [5] the target is T1, human IL-13. In words: DOM10 RBA (IL-13 sandwich ELISA per paragraph 473). The procedure: as §1
These in-line fusions were constructed and expressed as described above. […] After this incubation, the level of cell proliferation was determined.
On the technique in general: ELISA stands for enzyme-linked immunosorbent assay.

For test [6], the target named is T1, human IL-13. Description: IL-13 BIAcore binding assay. The source holds these as a separate data set.
Test [7] has as its target T1, human IL-13. In words: cell-based or functional assay. The source holds these as a separate data set.

Changes are numbered by the printed parent chain. Values joined by “and” are separate entries in the source; they are usually repeats but may differ in a detail not shown here. Equal entries are not always repeated. Where two headings read alike, the source gives them in different places.

The term Kd denotes the free concentration of one partner at which half of the binding sites on the other are occupied at equilibrium, for simple one-to-one binding. For orientation: IC50 means the concentration at which inhibition is half-maximal. Read a high IC50 as weaker potency in that assay.

T1 sequence (P35225 35-146 limits assumed): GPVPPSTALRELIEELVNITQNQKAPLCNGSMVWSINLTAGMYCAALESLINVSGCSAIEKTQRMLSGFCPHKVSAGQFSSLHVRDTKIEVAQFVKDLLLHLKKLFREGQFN

B1: DOM10-53-386 (other)
VH: GVQLLESGGGLVQPGGSLRLSCAASGFIFAWYDMGWVRQAPGKGLEWVSSIDWHGKITYYADSVKGRFTISRDNSKNTLYLQMNSLRAEDTAVYYCATAEDEPGYDYWGQGTLVTVSS
notes: VH dAb
Consider B1, for which the binding result with human IL-13 [1] is given as “binds”.

B2: DOM10-275-1 (other)
VH: EVQLLESGGGLVQPGGSLRLSCAASGFTFDREEMDWVRQAPGKGLEWVSTISPSGRKTYYADSVKGRFTISRDNSKNTLYLQMNSLRAEDTAVYYCAKAYTGFDYWGQGTLVTVSS
notes: VH dAb
Regarding B2, the “IC50, IL-13 cell binding assay (so in the source)” value in the test with human IL-13 [2] is 37 nM. Moreover, the Kd with human IL-13 [3] is 25 nM and 28 nM and 27 nM. In addition, the IC50 came out at 38 nM with human IL-13 [4] and 31.3 nM with human IL-13 [5].

B3: DOM10-276-15 (other)
VH: B2 VH with D30R, R31D, E32Y, T50S, S54N, R56S, K57E, Y59N, G102S
notes: VH dAb
B3 yielded a Kd in the test with human IL-13 [6] of 1.5 nM. The IC50 with human IL-13 [4] was 100 nM. The “IC50, IL-13 cell binding assay (so in the source)” value in the test with human IL-13 [7] is 90 nM.
